# B1: IL1-α: human recombinant IL1-α (R and D systems Inc.) (protein, UniProt P01583 113-271, looked up)
# Interleukin-1 alpha: SAPFSFLSNVKYNFMRIIKYEFILNDALNQSIIRANDQYLTAAALHNLDEAVKFDMGAYKSSKDDAKITVILRISKTQLYVTAQDEDQPVLLKEMPEIPKTITGSETNLLFFWETHGTKNYFTSVAHPNLFIATKQDYWVCLAGGPPSITDFQILENQA
# B2: EGF: human EGF (CALBIOCHEM) (protein, UniProt P01133 23-1207, looked up)
# Pro-epidermal growth factor: PQHWSCPEGTLAGNGNSTCVGPAPFLIFSHGNSIFRIDTEGTNYEQLVVDAGVSVIMDFHYNEKRIYWVDLERQLLQRVFLNGSRQERVCNIEKNVSGMAINWINEEVIWSNQQEGIITVTDMKGNNSHILLSALKYPANVAVDPVERFIFWSSEVAGSLYRADLDGVGVKALLETSEKITAVSLDVLDKRLFWIQYNREGSNSLICSCDYDGGSVHISKHPTQHNLFAMSLFGDRIFYSTWKMKTIWIANKHTGKDMVRINLHSSFVPLGELKVVHPLAQPKAEDDTWEPEQKLCKLRKGNCSSTVCGQDLQSHLCMCAEGYALSRDRKYCEDVNECAFWNHGCTLGCKNTPGSYYCTCPVGFVLLPDGKRCHQLVSCPRNVSECSHDCVLTSEGPLCFCPEGSVLERDGKTCSGCSSPDNGGCSQLCVPLSPVSWECDCFPGYDLQLDEKSCAASGPQPFLLFANSQDIRHMHFDGTDYGTLLSQQMGMVYALDHDPVENKIYFAHTALKWIERANMDGSQRERLIEEGVDVPEGLAVDWIGRRFYWTDRGKSLIGRSDLNGKRSKIITKENISQPRGIAVHPMAKRLFWTDTGINPRIESSSLQGLGRLVIASSDLIWPSGITIDFLTDKLYWCDAKQSVIEMANLDGSKRRRLTQNDVGHPFAVAVFEDYVWFSDWAMPSVMRVNKRTGKDRVRLQGSMLKPSSLVVVHPLAKPGADPCLYQNGGCEHICKKRLGTAWCSCREGFMKASDGKTCLALDGHQLLAGGEVDLKNQVTPLDILSKTRVSEDNITESQHMLVAEIMVSDQDDCAPVGCSMYARCISEGEDATCQCLKGFAGDGKLCSDIDECEMGVPVCPPASSKCINTEGGYVCRCSEGYQGDGIHCLDIDECQLGEHSCGENASCTNTEGGYTCMCAGRLSEPGLICPDSTPPPHLREDDHHYSVRNSDSECPLSHDGYCLHDGVCMYIEALDKYACNCVVGYIGERCQYRDLKWWELRHAGHGQQQKVIVVAVCVVVLVMLLLLSLWGAHYYRTQKLLSKNPKNPYEESSRDVRSRRPADTEDGMSSCPQPWFVVIKEHQDLKNGGQPVAGEDGQAADGSMQPTSWRQEPQLCGMGTEQGCWIPVSSDKGSCPQVMERSFHMPSYGTQTLEGGVEKPHSLLSANPLWQQRALDPPHQMELTQ
# modifications: Pro-epidermal growth factor
# Test system: osteosarcoma 143 cells
# Experiment: PGE2 synthesis by osteosarcoma 143 cells in response to arachidonic acid after treatment with growth factors/cytokines
# Format: cell-based, human
# Conditions: within a 3-hour period, 1% serum, relative to cells grown in the absence of these factors
Molecule,levels of PGE2 synthesis by osteosarcoma 143 cells in response to arachidonic acid (10 pg/ml),levels of PGE2 synthesis by osteosarcoma 143 cells in response to arachidonic acid (15 ng/ml)
B1,increased,–
B2,–,increased

# Source: patent publication US6689596B2, “High level expression of human cyclooxygenase-2” (Merck & Co., Inc., priority 1992, dated 2004)
